Patent US7968692B2, “Elongase genes and uses thereof” (Abbott Laboratories, priority 1998, dated 2011)

Tested on: S. cerevisiae 334
Assay: Human elongase HSELO1 activity in yeast
Type: cell-based, Saccharomyces cerevisiae
Description: The construct pRAE-58-A1 was transformed into S. cerevisiae 334 (Hoveland et al., supra) and screened for elongase activity. The negative control strain was S. cerevisiae 334 containing pYX242 vector. The cultures were grown for 24 hours at 30° C., in selective media (Ausubel et al., supra), in the presence of 25 μM of GLA or AA. In this study, DGLA or adrenic acid (ADA, 22:4n-6), respectively, was the predicted product of human elongase activity. […] Thus, the human elongase converts both 18 and 20 carbon chain long PUFAs to their respective elongated fatty acids.
To further confirm the substrate specificity of the human elongation enzyme, described above and referred to herein as HSELO1, the recombinant yeast strain 334(pRAE-58-A1) was grown in minimal media containing n-6 fatty acids GLA, AA, or n-3 fatty acids ALA, STA, or EPA. […] The levels of these fatty acids were 7.29% (DGLA), 6.26% (ADA), 6.15% (ETrA), 10.06% (ETA), and 6.66% (DPA), respectively, of the total fatty acids in the strain containing the pRAE-58-A1 sequence.
To confirm this hypothesis, 25 μM of exogenous OA was added as a substrate to the recombinant yeast strain 334(pRAE-58-A1).
To determine whether the substrate concentration affects the conversion of 18 and 20 carbon fatty acids to the respective elongated products, two different concentrations of GLA, AA, and EPA were examined (FIG. 52).
Although the addition of more substrates led to higher percentages of the two carbon elongated products, the overall conversion rate decreased by at least 35%.
To further confirm the substrate specificity of HSELO1p, the recombinant yeast strain 334(pRAE-58-A1) was grown in minimal media containing 25 μM of saturated, monounsaturated, or PUFAs. […] However, this is not an increase in the level of OA compared to the samples where PTA was not added, as OA was 25-31% of the total fatty acids in all samples. […] The levels of these fatty acids were 0.74% (C20:2n-6), 2.46% (DGLA), and 2.14% (ADA), respectively, of the total fatty acids in the lysates of 334(pRAE-58-A1). […] HSELO1p is also involved in the elongation of n-3 PUFAs ALA, STA, and EPA, but not DPA (FIG. 53C). […] The levels of these fatty acids were 1.03% ETrA, 2.24% (ETA), and 3.19% (DPA), respectively, of the total fatty acids in the strain containing the pRAE-58-A1 sequence.

B1: HSELO1: human elongase from liver cDNA (SEQ ID NO:3), expressed in yeast from pRAE-58-A1 (protein, listed as Homo sapiens)
chain: MEHFDASLSTYFKALLGPRDTRVKGWFLLDNYIPTFICSVIYLLIVWLGPKYMRNKQPFSCRGILVVYNLGLTLLSLYMFCELVTGVWEGKYNFFCQGTRTAGESDMKIIRVLWWYYFSKLIEFMDTFFFILRKNNHQITVLHVYHHASMLNIWWFVMNWVPCGHSYFGATLNSFIHVLMYSYYGLSSVPSMRPYLWWKKYITQGQLLQFVLTIIQTSCGVIWPCTFPLGWLYFQIGYIISLIALFTNFYIQTYNKKGASRRKDHLKDHQNGSVAAVNGHTNSFSPLENNVKPRKLRKD
Q: B1 was tested. Which “level of ADA, of total fatty acids” value (25 μM AA, 24 hours at 30° C., FIG. 45) did it give?
A: 1.21%

Q: What about the “conversion of AA to ADA” value (25 μM AA, FIG. 52) of the same molecule?
A: 27.5%

Q: What about the “level of ADA, of the total fatty acids” value (25 μM AA, FIG. 52) of the same molecule?
A: 2.91%

Q: What about the “conversion of AA to ADA” value (25 μM AA, FIG. 53B) of the same molecule?
A: 27.1%

Q: And the “level of ADA, of the total fatty acids” value (25 μM AA, FIG. 53B)?
A: 2.14%

Q: What about the “conversion of ALA to ETrA” value (25 μM ALA, FIG. 53C) of the same molecule?
A: 22.2%

Q: And the “level of ETrA, of the total fatty acids” value (25 μM ALA, FIG. 53C)?
A: 1.03%

Q: And the “conversion of EPA to DPA” value (25 μM EPA, FIG. 52)?
A: 70.3%

Q: And the “level of DPA, of the total fatty acids” value (25 μM EPA, FIG. 52)?
A: 4.82%

Q: What about the “conversion of EPA to DPA” value (25 μM EPA, FIG. 53C) of the same molecule?
A: 39.5%

Q: And the “level of DPA, of the total fatty acids” value (25 μM EPA, FIG. 53C)?
A: 3.19%

Q: What about the “level of DGLA, of total fatty acids” value (25 μM GLA, 24 hours at 30° C., FIG. 45) of the same molecule?
A: 2.75%

Q: What about the “conversion of GLA to DGLA” value (25 μM GLA, FIG. 52) of the same molecule?
A: 62.4%

Q: And the “level of DGLA, of the total fatty acids” value (25 μM GLA, FIG. 52)?
A: 3.95%

Q: And the “conversion of GLA to DGLA” value (25 μM GLA, FIG. 53B)?
A: 51.4%

Q: What about the “level of DGLA, of the total fatty acids” value (25 μM GLA, FIG. 53B) of the same molecule?
A: 2.46%

Q: What about the “conversion of LA to C20:2n-6” value (25 μM LA, FIG. 53B) of the same molecule?
A: 13.2%

Q: What about the “level of C20:2n-6, of the total fatty acids” value (25 μM LA, FIG. 53B) of the same molecule?
A: 0.74%

Q: What about the “conversion of STA to ETA” value (25 μM STA, FIG. 53C) of the same molecule?
A: 61.9%

Q: What about the “level of ETA, of the total fatty acids” value (25 μM STA, FIG. 53C) of the same molecule?
A: 2.24%

Q: And the “conversion of OA to EA” value (25 μM of exogenous OA)?
A: 8.9%

Q: What about the “accumulation of EA, of the total fatty acids” value (25 μM of exogenous OA, FIG. 51) of the same molecule?
A: 2.25%

Q: What about the “elongation of monounsaturated fatty acids OA and EA” value (25 μM substrate) of the same molecule?
A: also not involved

Q: And the “elongation of saturated fatty acids PA, SA, ARA, BA” value (25 μM substrate, FIG. 53A)?
A: not involved

Q: What about the “elongation of n-6 PUFAs DGLA or ADA” value (25 μM substrate, FIG. 53B) of the same molecule?
A: but not DGLA or ADA

Q: And the “elongation of n-3 PUFA DPA” value (25 μM substrate, FIG. 53C)?
A: but not DPA

Q: What about the “conversion of AA to ADA” value (100 μM AA, FIG. 52) of the same molecule?
A: 15.7%

Q: What about the “level of ADA, of the total fatty acids” value (100 μM AA, FIG. 52) of the same molecule?
A: 3.90%

Q: What about the “conversion of EPA to DPA” value (100 μM EPA, FIG. 52) of the same molecule?
A: 45.7%

Q: And the “level of DPA, of the total fatty acids” value (100 μM EPA, FIG. 52)?
A: 11.50%

Q: What about the “conversion of GLA to DGLA” value (100 μM GLA, FIG. 52) of the same molecule?
A: 39.8%

Q: And the “level of DGLA, of the total fatty acids” value (100 μM GLA, FIG. 52)?
A: 9.56%

Q: What about the “decrease of overall conversion rate” value (100 μM versus 25 μM of substrates GLA, AA, EPA) of the same molecule?
A: at least 35%

Q: And the “OA, of the total fatty acids” value (PTA added as a substrate, not an increase, OA was 25-31% in all samples)?
A: 12.76%

Q: And the “endogenous conversion of C16:1n-7 to C18:1n-7” value (endogenous substrate)?
A: 20.4%

Q: What about the “endogenous conversion of C18:1n-7 to C20:1n-7” value (endogenous substrate) of the same molecule?
A: 58.1%

Q: And the “conversion of AA to ADA” value (substrate AA, FIG. 51)?
A: 42.7%

Q: What about the “level of ADA, of the total fatty acids” value (substrate AA, FIG. 51) of the same molecule?
A: 6.26%

Q: What about the “conversion of ALA to ETrA” value (substrate ALA, FIG. 51) of the same molecule?
A: 30.4%

Q: And the “level of ETrA, of the total fatty acids” value (substrate ALA, FIG. 51)?
A: 6.15%

Q: What about the “conversion of EPA to DPA” value (substrate EPA, FIG. 51) of the same molecule?
A: 71.7%

Q: What about the “level of DPA, of the total fatty acids” value (substrate EPA, FIG. 51) of the same molecule?
A: 6.66%

Q: And the “conversion of GLA to DGLA” value (substrate GLA, FIG. 51)?
A: 78.3%

Q: And the “level of DGLA, of the total fatty acids” value (substrate GLA, FIG. 51)?
A: 7.29%

Q: And the “conversion of STA to ETA” value (substrate STA, FIG. 51)?
A: 79.2%

Q: What about the “level of ETA, of the total fatty acids” value (substrate STA, FIG. 51) of the same molecule?
A: 10.06%
